# Test: yeast display, Sf9 membrane polyspecificity reagent, FACS + sequencing; frameworks hold sequencing errors
# How it was run: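 Using colony PCR, genes from sorted yeast display clones were amplified, then sequenced on MiSeq at 2 × 250 and filtered by CDR length. The clones had been stained with 10% biotinylated, detergent-solubilized Sf9 membrane reagent for 1 hour at 4 °C and sorted by FACS into low and high (top ~1%) gates on anti-HA and streptavidin fluorescence. Polyreactivity labels come from the gate of origin.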
row,Sequence,polyreactivity (PSR sort gate)
1,QVQLVESGGGLVQAGGSLRLSCAASGSTFGRNAMGWYRQAPGKDRELVAAINSGGGTYYADSVKGRFTISRDNAKNTVYLQMNSLKPEDTAVYDCAAARGYGNYVYWGQGTQVTVSS,low polyreactivity
2,QVQLVESGGGLVQAGGSLRLSCAASGSTFGRNAMGWYRQAPGKERELVAAISWRSTPTYYADSVKGRFTISRDNAKNTVYLQMNSLKPEDTAVYYCAVYYYYPSTNGYHYDYWGHGTQVTVSS,high polyreactivity
3,QVQLVESGGGLVQAGGSLRLSCAASGSTFGRNAMGWYRQAPGKERELVASITSRGTSTYADSVKGRFTISRDNAKNTVYLQMNSLKPEDTAVYYCAAGVISYRRRSYYYWGQGTQVTVSS,high polyreactivity
4,QVQLVESGGGLVQAGGSLRLSCAASGSTFGRYAMGWSRQAPGKERELVAAITTSGRRTRYADSVKGRFTISRDNAKNTVYLQMNSLKPEDTAVYYCAASGAQGPDYDYWGQGTQVTVSS,low polyreactivity
5,QVQLVESGGGLVQAGGSLRLSCAASGSTFGRYAMGWYRQAPGKERELVAAITSGSSTNYADSVKGRFTISRDNAKNTVYLPMNSLKPEDTAVYYCAAPKSRQSTYYYWGQGTQVTVSS,high polyreactivity
6,QVQLVESGGGLVQAGGSLRLSCAASGSTFGRYTMGWYRQAPGKERQLVAAISSSGGGTYYADSVKGRLTISRDNAKNTVYLQMNSLKPEDTAVYYCAALGSRRYTRYGLTGFDYWGQGTQVTVSS,high polyreactivity
7,QVQLVESGGGLVQAGGSLRLSCAASGSTFGRYVMGLYRQAPGQERELVAAISKNAGSTYYADSVKGRFTISRDNAKNTVYLQMNSLKPEDTAVYYCAADWRTKGYDSLGQGTQVTVSS,high polyreactivity
8,QVQLVESGGGLVQAGGSLRLSCAASGSTFGRYVMGWYRQAPGKERELVAAISGSGGSTYYADSVKGRFTISRDNAKNTVYLQMNSLKPEDTAVYYCAARVAHYEYYWGQGTQVTVSS,high polyreactivity
9,QVQLVESGGGLVQAGGSLRLSCAASGSTFGRYVMGWYRQAPGKERELVAAISKNAGSTYYADSVKGRFTISRDNAKNTVYLQMNSLKPEDTAVYYCNAQSFREYGYWGQGTQVTVSS,high polyreactivity
10,QVQLVESGGGLVQAGGSLRLSCAASGSTFGSNALGWYREAPAKERELVAAIDANCGSTYYADSVKGRFTISRDNAKNTVYLQMHSQKQEDTAVYYCAAAGYCYYYVPNDYWGQGTQVTVSS,low polyreactivity
11,QVQLVESGGGLVQAGGSLRLSCAASGSTFGSNAMGGYRKAPGKERELVAAISTSGGSTYYADSVKGRFTISRDNAKNTVYLQMNSLKPEDTAVYYCNVDPAYSITYKGDYWGQGTQVSVSS,low polyreactivity
12,QVQLVESGGGLVQAGGSLRLSCAASGSTFGSNAMGWSRQAPGKERELVAAITYSGGRTYYADSVQGRFTISRDNAKNTVYLQMNSLKPEDPAVYYCAATFGFFYYQYDYWGQGTQVTVSS,low polyreactivity
13,QVQLVESGGGLVQAGGSLRLSCAASGSTFGSNAMGWYRQAPGKERELVAAIRGIVGSTYYADSVKGRFTISRDNAKNTVYLQMNSLKPEDTAVYYCNKAEVSTYYHTRSTYGGYDYWGQGTQVTVSS,low polyreactivity
14,QVQLVESGGGLVQAGGSLRLSCAASGSTFGSYAMGWHRQAPGKERELVASITYSGDSSNYSDSVKGRFTLSRDNAKNTVYLQMNSLKPEDTAVYYCKARAVMTQYIQKRYDYWGQGTQVTVSS,low polyreactivity
15,QVQLVESGGGLVQAGGSLRLSCAASGSTFGSYAMGWYIQAPGKERELVAAISRAGSTYADSVKGRFTISRDNAKNTVYLQMNSLKPEDTAVYYCAKRDNALYYGYDYWGQGTQVTVSS,low polyreactivity
16,QVQLVESGGGLVQAGGSLRLSCAASGSTFGSYAMGWYRQAPGGERELVAAISWNGGRTYYADSVKGRFTISRDNAKNTVYLQMNSLKPEDTAVYYCAKVVKYQSGGGLEYWGQGTQVTVSS,high polyreactivity
17,QVQLVESGGGLVQAGGSLRLSCAASGSTFGSYAMGWYRQAPGKERELVAAISYSGGSTYYADSVKGRFTISRDNAKNTVYLLMNSLKPEDTAVYYCATVRKYRAMDYWGQGTQVTVSS,high polyreactivity
18,QVQLVESGGGLVQAGGSLRLSCAASGSTFGSYAMGWYRQAPGKERELVAAITSSGGRTYYADSVKGRFTISRDNSKNTVYLQMNSLKPEDTAVYYCAARPRGGVFEYGYWGQGTQVTVSS,high polyreactivity
19,QVQLVESGGGLVQAGGSLRLSCAASGSTFGSYAMGWYRQAPGKERELVAGISWSGGRTYYADSVKGRFTISRDNAKNTVYLQMNSLKPEDTAVYYCARDTGYYYARYNYWGQGTQVTVSS,low polyreactivity
20,QVQLVESGGGLVQAGGSLRLSCAASGSTFGSYARGWYRPAPGKERELVAAISRTGGSTRYADSVKGRFTISRDNAQNSVYFQMNSLKPEDSAVYYCNARLSSYSTIRGVYWGQGTQVTVSS,high polyreactivity
21,QVQLVESGGGLVQAGGSLRLSCAASGSTFGTYAMGWYRQAPGKERELVAAISSGDSTTYADSVKGRFTISRDNAKNTVYLQMNSLKPEDTAVYYCAARTFLMRNGGYNYWGQGTQVTVSS,low polyreactivity
22,QVQLVESGGGLVQAGGSLRLSCAASGSTFGTYAMGWYRQAPGKERELVAAITSGGSTDYADSVKGRFTISRDNAKNTVYLQMNSLKPEDTAVYYCNATWELLSYYYLFWGYDYWGQGTQVTVSS,low polyreactivity

row,Sequence,polyreactivity (PSR sort gate)
1,QVQLVESGGGLVQAGGSLRLSCAASGSTFGVNAMGWYRQAPGKERELVAAIRSAVPTYYADSVKGRFTISRDNAKNTVYLQMNSLKPEDTAVYYCAKRWSAKYGFYYWGQGTQVTVSS,high polyreactivity
2,QVQLVESGGGLVQAGGSLRLSCAASGSTFGVNAMGWYRQAPGKERELVATISRGTSTNYADSVKGRFTISRDNAKNTVYLQINSLKPEDTAVYYCAKRVFYPGAYRYYYWGQGTQVTVSS,high polyreactivity
3,QVQLVESGGGLVQAGGSLRLSCAASGSTFGVNAMGWYRQAPGKERELVAVITRSGGSTYYADSVKGRFTISRDNAKNTVYLQMNSLKPEDTAVYYCAKSGVVDWGQGTQVTVSS,low polyreactivity
4,QVQLVESGGGLVQAGGSLRLSCAASGSTFGVNAMGWYRQAPGTERELVADISVRTDSTYYADSVKGRVTISRDNAKNTVYLQMNSLKAEDTAVYYCNAGLGIEYDYWGQGTQVSVSS,low polyreactivity
5,QVQLVESGGGLVQAGGSLRLSCAASGSTFGVYAMGWYRQAPGKEREFVAAISSSDGSTYYADSVKGRFTISRDNAKNTVYLQMNSLKPEDTAVYYCAKRGGYIYYAVTFTAEHGYWGQGTQVTVSS,low polyreactivity
6,QVQLVESGGGLVQAGGSLRLSCAASGSTFGVYAMGWYRQAPGKERELVAAISGSGAGTYYADSVKGRFTISRDNAKNTVYLQMNSLKPEDTAVYYFNKVSVRGQRYGYWGQGTQVTVSS,high polyreactivity
7,QVQLVESGGGLVQAGGSLRLSCAASGSTFGVYGMGWYRQAPGKERELVASITSDGNTNYADSVKGRFTISRDNAKNTVYLQMNSLKPEDTAVYYCNTVGIQALYDYWGQGTQVTVSS,low polyreactivity
8,QVQLVESGGGLVQAGGSLRLSCAASGSTFGWYAMGWYRQAPGKEREFVAAISWSGTSTYYADSVKGRFTISRDNAKNTVYLQMNSLKPEDTAVYYCNARSKRANRSLGLGYWGQGTQVTVSS,low polyreactivity
9,QVQLVESGGGLVQAGGSLRLSCAASGSTFGWYTMGWYRQAPGKERELVAAITSRGTRTSYADSVKGRFTISRDYAKNTVYLQMNSLKPEDTAVYYCAARVFRGLGEYYWGQGTQVTVSS,high polyreactivity
10,QVQLVESGGGLVQAGGSLRLSCAASGSTFGYAMGWYRQAPGKEREMVAAITSTGGSTYYADSVKGRFTISRDNAKNTVYVQMHSLKPEDTAVYYCAAQVGRGYEVYPVYKYGYWGQGTQVTVSS,high polyreactivity
11,QVQLVESGGGLVQAGGSLRLSCAASGSTFGYNAMGWDRQAPGKERELVAAITGNDGTTYYADSVKGRFTISRDNAKNSVYLQMNSLKPEDSAVYYCAARPYLGYIGYEYWGQGTQVTVSS,low polyreactivity
12,QVQLVESGGGLVQAGGSLRLSCAASGSTFGYNAMGWYRQAPGKERELVAAISNGSDRTYYADSVKGRFTISRDNAKNTVYLQMNSLKPEDTAVYYCAKDRDFSSPPTESGFDYWGQGTQVTVSS,low polyreactivity
13,QVQLVESGGGLVQAGGSLRLSCAASGSTFGYNAMGWYRQAPGKERELVAAISRGGRITYYADSVKGRFTISRDNAKNTVYLQMNSLKQEDTAVYNCAARVQWRGYGYYYWGQGTQVTVSS,high polyreactivity
14,QVQLVESGGGLVQAGGSLRLSCAASGSTFGYNAMGWYRQAPGKERELVAAISRSGGRTYYADSVKGRFTISRDNAKNTVYLQMNSLKPEDTAVYYCATYYTNKVPARYYWGQGTQVTVSS,high polyreactivity
15,QVQLVESGGGLVQAGGSLRLSCAASGSTFGYNAMGWYRQAPGKERELVAGIRSSGGSTYYADSVKGRFTISRDNAKNTVYLQMNSLKTEDTAVSYCNTRRRRNEKMYYWGQGTQVTVSS,high polyreactivity
16,QVQLVESGGGLVQAGGSLRLSCAASGSTFGYNAMGWYRQAPGKERELVARITSSGGSTYYADSVKGRFTISRDNAKNTVYLQMNSLKPEDTAVYYCAAGYPYRAVYRYYYWGQGTQVTVSS,high polyreactivity
17,QVQLVESGGGLVQAGGSLRLSCAASGSTFGYNAMGWYRQAPGKERELVASITWSSGSTYYADSVKGRFTISRDNAKNTVYLQMNSLKPEDTAVYYCAADVEYWSYEFNYWGQGTQVTVSS,low polyreactivity
18,QVQLVESGGGLVQAGGSLRLSCAASGSTFGYNDMGWYRQAHGKERELVAVIDSGGSTNYADSVKGRFTISRDNAKNTVYLQMNSLKPEDTAVYYCAADRDKGNGADVWYGYDYWGQGTQVTVSS,low polyreactivity
19,QVQLVESGGGLVQAGGSLRLSCAASGSTFGYNGMGWFRQAPGKERELVAAISGGARTYADSVKGRFTISRDNAKNTVYLQMNSLKPEDTAVYYCAAGVFHIFSRGNYDPSEYEYWGQGTQVTVSS,low polyreactivity
20,QVQLVESGGGLVQAGGSLRLSCAASGSTFGYYAMGWDRQAPGKERELVAAISRRVGSTYYADSVKGRFTISRDNAKNTVSLQMNSLNPEDTAVYYWASTSVNPWRGDYDMYYWGQGTQVTVSS,high polyreactivity
21,QVQLVESGGGLVQAGGSLRLSCAASGSTFGYYAMGWSRQAPGKEREFVAAITYGDGNTYYADSVKGRFTISRDNAKNTVYLQMNRLKREDTEVYYCAKYYWGPTGAHGGYGYWGQGTQVTVCS,low polyreactivity
